US20120028901A1

Each binder was assayed against T1, TFPI (human TFPI-1α) as coated or added in the ELISA, microarray and enzymatic assays (human), P10646 (assay: not given). Settings: modification not given.

Row | EC50 | Binder
1 | 2420 nM | FQSKGNVFVAGYFARLRAKL [JBT0806]

Target: T1, TFPI (human TFPI-1α) as coated or added …
Experiment: not given
Settings: modification not given
Remark: another data set of the same source

Row | EC50 | Binder
2 | 220 nM | FQSKGNVFVTGYFARLRAKL [JBT0720]

These binders were tested against T1, TFPI (human TFPI-1α) as coated or added … (assay: competition). Settings: modification not given.

Row | IC50 | Binder
3 | 40 nM | FQSKNNVFVHGYFERLRAKL [JBT0487]
4 | > 5000 nM | FQSKKNVFVFGYFERLRAFL [JBT0583]
5 | > 5000 nM | FQSFKNVFVFGYFERLRAKL [JBT0572]
6 | > 1670 nM | FDSKKNVFVFGYFERLRAKL [JBT0586]
7 | 1190 nM | FESKGNVFVFGYFERLRAKL [JBT0516]
8 | > 5000 nM | FQSKKNDFVFGYFERLRAKL [JBT0590]
9 | > 5000 nM | FQSKKFVFVFGYFERLRAKL [JBT0574]
10 | > 5000 nM | FQSKKNVFVFGDFERLRAKL [JBT0594]
11 | > 5000 nM | FQSKKNVFVFGYFEFLRAKL [JBT0579]
12 | > 5000 nM | FQSKKNVFVFGYFERLFAKL [JBT0581]
13 | > 5000 nM | FQSKKNVFVFGFFERLRAKL [JBT0577]
14 | 100 nM | AQSKGNVFVFGYFERLRAKL [JBT0497]
15 | > 5000 nM | FQSKKNVFDFGYFERLRAKL [JBT0592]
16 | > 5000 nM | FFSKKNVFVFGYFERLRAKL [JBT0570]
17 | > 1670 nM | FQSKKNVFVFFYFERLRAKL [JBT0576]
18 | > 5000 nM | FQFKKNVFVFGYFERLRAKL [JBT0571]
19 | > 5000 nM | FQSKKNVFVFGYFERLRFKL [JBT0582]
20 | > 5000 nM | FQSDKNVFVFGYFERLRAKL [JBT0588]
21 | > 5000 nM | FQSKKNVFVFGYFERFRAKL [JBT0580]
22 | > 5000 nM | FQSKKNVDVFGYFERLRAKL [JBT0591]
23 | 1370 nM | FQSKFNVFVFGYFERLRAKL [JBT0573]

Target: T1, TFPI (human TFPI-1α) as coated or added …
Experiment: not given
Settings: modification not given
Remark: another data set of the same source

Row | EC50 | Binder
24 | 130 nM | FQSKGNVFVAGYFARLRAKL [JBT0806]
